Measured values as given in publication PMC8965865.
Positions count from the first letter of the chain named.

Tests used:
[1] = molecular target: T1, Fur (Mycobacterium smegmatis mc2155) (UniProt A0QXX6); experiment: EMSA; conditions: 20 mM Tris HCl pH 8.0, 1 mM DTT, 50 mM KCl, 5 mM MgCl2, 20 ul, 30 min at 30 C
T1 sequence: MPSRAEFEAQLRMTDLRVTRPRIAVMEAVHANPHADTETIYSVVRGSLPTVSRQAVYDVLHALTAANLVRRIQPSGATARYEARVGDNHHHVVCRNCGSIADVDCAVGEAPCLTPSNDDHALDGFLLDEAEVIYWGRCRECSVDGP

[2] = molecular target: T2, mFur (A28V Fur) A28V (Mycobacterium smegmatis mc251) (UniProt A0QXX6); experiment: EMSA; conditions: 20 mM Tris HCl pH 8.0, 1 mM DTT, 50 mM KCl, 5 mM MgCl2, 20 ul, 30 min at 30 C
T2 sequence: T1 sequence with A28V

In the case of “CATCCGCAGTTGGGCTTCGAACTCCGCCCGAGAGGGCATGCCGCCCACCTTGCTCGCCCGATTGGACGCAGTCAAGTCTTTCTCGAATTCGGTATGTCGGTGCATGTCTCGCTCCGATCTGGGAGCTCGGATGGGAGGCGCAAGAGCGAGCCGCGTTCGGCCATTGTCGGCCGACCGCTTCTGCGCGCAGGCTTGCTGCGGCGGTTACCCCGATGTGCCCGACGCTATACCTCCAGCCGAAGAAATTTCTTGCAATGGTTGTTTTCCAACG (double strand) [fur promoter DNA fragment]”, the binding [1] is reported as “binds” and the binding [2] is reported as “binds more weakly”.
